According to patent US20090041767A1, “PHARMACEUTICAL COMBINATIONS” (priority 2007, published 2009):

Molecular target: mouse α5β1 (Mus musculus, UniProt P09055+P11688)
Assay: antibody binding to mouse α5β1 integrin

Chain of mouse α5β1 (P11688 45-1053): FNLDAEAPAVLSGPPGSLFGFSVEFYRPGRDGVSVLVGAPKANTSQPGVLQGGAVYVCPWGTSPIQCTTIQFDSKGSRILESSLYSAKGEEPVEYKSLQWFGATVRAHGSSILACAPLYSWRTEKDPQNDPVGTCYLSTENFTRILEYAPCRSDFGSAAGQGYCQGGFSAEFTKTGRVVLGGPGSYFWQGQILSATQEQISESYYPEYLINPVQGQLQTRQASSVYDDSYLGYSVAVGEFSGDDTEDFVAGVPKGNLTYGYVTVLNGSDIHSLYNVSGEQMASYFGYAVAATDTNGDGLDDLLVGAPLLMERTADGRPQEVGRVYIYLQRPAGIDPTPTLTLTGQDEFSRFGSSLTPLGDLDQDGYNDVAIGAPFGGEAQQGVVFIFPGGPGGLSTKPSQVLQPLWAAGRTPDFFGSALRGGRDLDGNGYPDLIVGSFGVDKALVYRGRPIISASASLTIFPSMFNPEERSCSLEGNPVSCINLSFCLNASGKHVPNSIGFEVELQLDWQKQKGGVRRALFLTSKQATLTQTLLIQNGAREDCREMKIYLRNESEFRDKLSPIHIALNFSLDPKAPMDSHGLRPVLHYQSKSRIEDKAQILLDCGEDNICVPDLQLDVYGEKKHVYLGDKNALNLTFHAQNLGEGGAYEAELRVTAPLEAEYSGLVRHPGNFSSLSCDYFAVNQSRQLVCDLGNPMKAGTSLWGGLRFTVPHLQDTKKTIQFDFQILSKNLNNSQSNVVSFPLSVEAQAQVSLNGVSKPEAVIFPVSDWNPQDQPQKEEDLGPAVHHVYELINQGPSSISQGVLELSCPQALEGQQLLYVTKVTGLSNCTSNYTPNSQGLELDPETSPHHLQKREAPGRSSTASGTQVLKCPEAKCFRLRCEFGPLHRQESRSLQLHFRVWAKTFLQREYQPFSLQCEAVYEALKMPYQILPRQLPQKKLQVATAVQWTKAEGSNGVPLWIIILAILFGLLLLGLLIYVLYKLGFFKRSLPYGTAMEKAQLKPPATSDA
Chain of mouse α5β1 (P09055 21-798): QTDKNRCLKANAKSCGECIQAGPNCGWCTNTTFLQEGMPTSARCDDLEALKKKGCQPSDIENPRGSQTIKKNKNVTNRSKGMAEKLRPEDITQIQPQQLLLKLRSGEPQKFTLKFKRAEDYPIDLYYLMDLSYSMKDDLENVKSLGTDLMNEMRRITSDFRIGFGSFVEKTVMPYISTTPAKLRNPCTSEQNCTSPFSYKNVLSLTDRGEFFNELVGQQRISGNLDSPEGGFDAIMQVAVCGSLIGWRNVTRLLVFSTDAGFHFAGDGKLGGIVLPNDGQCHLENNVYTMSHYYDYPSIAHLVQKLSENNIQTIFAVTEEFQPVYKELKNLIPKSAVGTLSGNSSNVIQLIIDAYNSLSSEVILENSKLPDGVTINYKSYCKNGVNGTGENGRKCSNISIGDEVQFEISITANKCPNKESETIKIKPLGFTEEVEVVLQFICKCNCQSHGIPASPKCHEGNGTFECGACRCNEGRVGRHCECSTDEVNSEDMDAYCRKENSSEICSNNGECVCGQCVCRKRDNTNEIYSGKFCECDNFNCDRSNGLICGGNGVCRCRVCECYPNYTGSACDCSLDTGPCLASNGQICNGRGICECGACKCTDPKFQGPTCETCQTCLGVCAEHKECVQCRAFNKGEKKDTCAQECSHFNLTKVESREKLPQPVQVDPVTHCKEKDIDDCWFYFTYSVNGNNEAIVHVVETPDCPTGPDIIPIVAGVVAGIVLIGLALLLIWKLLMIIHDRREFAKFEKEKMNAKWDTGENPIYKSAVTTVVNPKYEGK

binding to mouse α5β1: binds mouse α5β1 with high affinity
B1: 339.1: monoclonal antibody that targets murine α5β1; volociximab surrogate; VH SEQ ID NO: 22, VL SEQ ID NO: 23 (antibody, V domains shown)
VH: MDIRLSLAFLVLFIKGVQCEVYLVESGGGSVQPGRSTKLSCAASEFTFSTSSMAWVRQAPTKGLEWVATISSSGEYTYYRDSVKGRFTISRDNAKSTLYLQMNSLRSEDTATYYCTRGVLYWGQGVMVTVSS
VL: MAPVQLLGLLLLCLPAMRCDIQMTQSPSLLSASVGDRVTLNCKSSQNIYKNLNWYQQKLGEPPKLLIHYTDNLQAGIPSRFSGSGSGTDYTLTISSLHPDDVATYFCFQYNRGPTFGAGTKLELK
modifications: heavy chain variable region for mouse volociximab analog; light chain variable region for mouse volociximab analog
